B1: library; numbered along this chain (parent)
chain: MAAAGGARLLRAASAVLGGPAGRWLHHAGSRAGSSGLLRNRGPGGSAEASRSLSVSARARSSSEDKITVHFINRDGETLTTKGKVGDSLLDVVVENNLDIDGFGACEGTLACSTCHLIFEDHIYEKLDAITDEENDMLDLAYGLTDRSRLGCQICLTKSMDNMTVRVPETVADARQSIDVGKTS

Variants of: B1
Experiment: scaled log2 fold change in cell abundance, elesclomol vs control (0 = silent mean, 1 = nonsense mean) (scaled log2 ratio); higher = higher viability under elesclomol (loss of FDX1 cuproptosis function)
Settings: glucose 10 mM
[1] = with ABC1 FDX1 KO, elesclomol 5 nM, 14 days
[2] = with HEK293T FDX1 KO, elesclomol 40 nM, 11 days
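Note: variant abundance is its share of total variant reads in each endpoint sample, from next-generation sequencing of the integrated ORF PCR-amplified out of genomic DNA.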

| Variant | scaled log2 fold change [1] | scaled log2 fold change [2] |
| --- | --- | --- |
| G83K | 0.72 | 0.427 |
| G83Q | 0.455 | 0.716 |
| G83F | 0.576 | 0.231 |
| G83I | 0.557 | 0.712 |
| G83V | 0.0583 | 0.224 |
| G83Y | 0.73 | 0.383 |
| G83D | 0.697 | 0.804 |
| G83R | 0.756 | 0.39 |
| G83C | 0.0146 | 0.00891 |
| G83M | 0.483 | 0.859 |
| G83H | 0.285 | -0.572 |
| G83E | 0.881 | 0.975 |
| G83A | 0.184 | -0.672 |
| G83S | 0.0697 | -1.34 |
| G83P | 0.126 | -0.345 |
| G83T | 0.0201 | -0.4 |
| G83N | 0.304 | -0.106 |
| G83W | 0.275 | -0.151 |
| G83L | 0.777 | 1.06 |
| T80L | -0.289 | -0.147 |
| T80Y | 0.26 | -0.203 |
| T80V | 0.126 | -0.0679 |
| T80C | 0.0285 | -0.291 |
| T80N | 0.128 |  |

| Variant | scaled log2 fold change [1] | scaled log2 fold change [2] |
| --- | --- | --- |
| T80F | 0.473 | -0.712 |
| T80S | -0.407 |  |
| T80D | -0.0431 | -0.13 |
| T80K | 0.183 | -0.131 |
| T80I | 0.231 | 0.056 |
| T80R | -0.0268 | -0.512 |
| T80E | 0.301 | -0.0351 |
| T80A | -0.231 |  |
| T80M | 0.0647 |  |
| T80Q | -0.0848 | 0.379 |
| T80H | 0.295 |  |
| T80G | 0.0761 | -0.279 |
| T80P | 0.231 | -0.0181 |
| T80W | 0.177 | 0.805 |
| V85H | -0.166 | -0.307 |
| V85E | -0.055 | -0.248 |
| V85L | -0.101 | 0.47 |
| V85T | -0.279 | -0.55 |
| V85Y | -0.534 | -0.0166 |
| V85F | 0.217 | 1.05 |
| V85D | 0.12 | -0.189 |
| V85M | 0.00542 | -0.0343 |
| V85P | -0.0817 | -1.46 |
| V85C | -0.197 | -0.0853 |

| Variant | scaled log2 fold change [1] | scaled log2 fold change [2] |
| --- | --- | --- |
| V85R | 0.266 | -0.792 |
| V85S | 0.131 | -0.121 |
| V85G | 0.265 | 0.288 |
| V85K | 0.192 | -0.177 |
| V85I | -0.161 | -0.597 |
| V85A | 0.0788 | -0.325 |
| V85N | -0.0121 | 0.0182 |
| V85Q | 0.0746 | -0.0938 |
| V85W | 0.119 | 0.889 |
| V92F | 0.0178 | 0.0606 |
| V92I | -0.0115 | 0.336 |
| V92Q | -1.03 | 0.183 |
| V92L | 0.019 |  |
| V92C | 0.195 | -0.64 |
| V92P | 0.511 | 0.131 |
| V92K | 0.913 | 0.724 |
| V92M | -0.0956 | 0.391 |
| V92H | 0.295 | 0.314 |
| V92N | 0.121 | 0.904 |
| V92G | 0.459 | 0.237 |
| V92R | 1.1 | 0.379 |
| V92A | 0.494 | -0.354 |
| V92D | 1.07 | 1.13 |
| V92E | 0.961 | 0.463 |

| Variant | scaled log2 fold change [1] | scaled log2 fold change [2] |
| --- | --- | --- |
| L90R | -0.127 | -0.461 |
| L90F | 0.00898 | -0.179 |
| L90K | 0.0261 |  |
| L90H | -0.379 | 1.81 |
| L90G | 0.46 | 0.288 |
| L90T | -0.871 | -0.404 |
| L90E | 0.187 | 0.205 |
| L90P | 0.597 | 0.277 |
| L90S | -1 | 0.27 |
| L90W | -0.148 | 0.134 |
| L90D | 0.478 | 0.245 |
| L90A | -0.423 |  |
| L90V | -0.0886 | -0.208 |
| L90Y | -0.103 |  |
| L90M | -0.268 | -0.239 |
| L90N | 0.293 | -0.049 |
| L90Q | -0.132 | -0.0146 |
| L90I | -0.268 | 0.924 |
| L90C | 0.079 | 0.931 |
| T81L | 0.127 | 0.885 |
| T81F | 0.141 |  |
| T81G | 0.204 | -1.09 |
| T81E | 0.273 | 0.0361 |
| T81A | 0.0513 | 1.11 |

| Variant | scaled log2 fold change [1] | scaled log2 fold change [2] |
| --- | --- | --- |
| T81C | 0.0149 | -0.28 |
| T81R | 0.181 | 0.0327 |
| T81P | 0.103 | 1.32 |
| T81H | 0.282 | -0.297 |
| T81W | -0.0129 | -0.543 |
| T81Q | -0.159 | -0.00467 |
| T81K | 0.0566 | 0.178 |
| T81N | 0.308 | 0.885 |
| T81Y | -0.015 | -0.0662 |
| T81V | 0.0264 | -0.0523 |
| T81S | -0.82 | 1.14 |
| T81D | -0.11 | -0.616 |
| T81I | 0.266 | 0.81 |
| T81M | -0.27 | 0.26 |
| L89T | -0.121 | -0.104 |
| L89V | 0.313 | -0.151 |
| L89K | 1.05 | 1.47 |
| L89F | 0.706 | 0.454 |
| L89N | 1.2 | 0.434 |
| L89Y | 0.534 | 0.223 |
| L89E | 0.919 | 0.768 |

— the supplement of paper PMC12855868
